In US20230213524A1 (published 2023):

Legend:
FOLR2 = biological target: T1, FOLR2 (UniProt P14207 17-230, limits assumed); test: commercially available ELISA kit
T1 construct: also called folate receptor 2
Description: (§1) It is important that the assay detect only FOLR1, and not FOLR2 or especially FOLR3 (commonly found as a shed protein in human plasma), since Mov19 is specific for only FOLR1. To determine this, the top four clones were screened by commercially available ELISA kits (FIGS. 7A-B).

FOLR3 = biological target: T2, FOLR3 (UniProt P41439 23-245, limits assumed); test: commercially available ELISA kit
T2 construct: also called folate receptor 3
Description: as §1

[1] = biological target: human folate receptor 1 (FOLR1) on cells (human) (UniProt P15328); test: laser scanning cytometry on KB cells pre-treated with M9346A or vehicle, then stained with commercial FRA
[2] = biological target: T3, human folate receptor 1 (FOLR1) on cells (human, UniProt P15328 25-234); test: flow cytometry on T47D cells and ELISA (binding affinity 'by both methods')
T3 construct: On the cell surface: 300-19 cells transfected with human FOLR1 (NCBI NP_057937), or endogenous on KB, T47D and OVCAR3 cells; also called huFOLR1; folate receptor alpha
Method: To assure that materials were continuously performing as expected, all antibodies were screened for binding by both ELISA and flow cytometry methods known in the art. Flow cytometry was performed using FOLR1 expressing human T47D cells cultured using in-vitro cell culture techniques known in the art. The antibodies were bound to these cells and detected indirectly using a goat anti-murine Alexa-fluor 488 detection antibody on a FACScalibur machine (FIGS. 6A-B).

T3 sequence (P15328 25-234 limits assumed): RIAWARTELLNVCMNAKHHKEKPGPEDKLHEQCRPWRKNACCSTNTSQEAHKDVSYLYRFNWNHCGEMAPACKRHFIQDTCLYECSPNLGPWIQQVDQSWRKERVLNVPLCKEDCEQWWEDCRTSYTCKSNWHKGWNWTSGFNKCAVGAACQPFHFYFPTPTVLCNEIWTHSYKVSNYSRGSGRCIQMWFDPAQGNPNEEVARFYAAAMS
T2 sequence (P41439 23-245 limits assumed): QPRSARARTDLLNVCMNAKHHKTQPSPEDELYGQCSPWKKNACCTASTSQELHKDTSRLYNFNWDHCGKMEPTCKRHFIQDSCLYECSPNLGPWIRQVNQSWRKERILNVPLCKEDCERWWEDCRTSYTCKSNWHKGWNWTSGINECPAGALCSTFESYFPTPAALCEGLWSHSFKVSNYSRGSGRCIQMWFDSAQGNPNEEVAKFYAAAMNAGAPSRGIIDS
T1 sequence (P14207 17-230 limits assumed): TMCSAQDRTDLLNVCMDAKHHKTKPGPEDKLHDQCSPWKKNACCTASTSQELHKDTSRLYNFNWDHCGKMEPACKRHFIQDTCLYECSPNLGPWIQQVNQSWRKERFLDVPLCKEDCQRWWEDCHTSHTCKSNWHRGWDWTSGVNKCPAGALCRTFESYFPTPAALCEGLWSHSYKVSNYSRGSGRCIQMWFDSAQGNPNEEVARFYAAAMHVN
Chain of human folate receptor 1 (FOLR1) on cells (human) (P15328 25-234 limits assumed): as the sequence (P15328 25-234 limits assumed) above

binding result (FOLR2) | binding result (FOLR3) | drop in FRA signal [1] [%] | Kd [2] [nM] | Binder
no binding | no binding | 66 |  | huMov19 (M9346A) (antibody, V domains shown, also called IMGN853 antibody; antibody component of IMGN853) VH: QVQLVQSGAEVVKPGASVKISCKASGYTFTGYFMNWVKQSPGQSLEWIGRIHPYDGDTFYNQKFQGKATLTVDKSSNTAHMELLSLTSEDFAVYYCTRYDGSRAMDYWGQGTTVTVSS VL: DIVLTQSPLSLAVSLGQPAIISCKASQSVSFAGTSLMHWYHQKPGQQPRLLIYRASNLEAGVPDRFSGSGSKTDFTLTISPVEAEDAATYYCQQSREYPYTFGGGTKLEIKR
 |  |  | 2 to 4 | muFR1-9 (antibody, mouse IgG1, kappa, V domains shown, Murine monoclonal purified from hybridoma supernatant; Capture antibody of the shed antigen ELISA; also called murine FR1-9) VH: QVQLVESGGGLVQPGGSRKLSCAASGFTFSSFGMHWVRQAPEKGLEWVAYISSGSSTFYYADTVKGRFTISRDNPKNTLFLQMTSLRSEDTAMYYCAKELTGTFAYWGQGTLVTVSA VL: DIVLTQSPATLSVTPGDSVSLSCRASQSINNNLHWYQQKSHESPRLLIKYASQSISGIPSRFSGSGSGTDFTLSINSVETEDFGMYFCQQSNSWPQVTFGAGTKLELKR
 |  |  | 1 to 3 | muFR1-13 (antibody, mouse IgG2b, kappa, V domains shown, Murine monoclonal purified from hybridoma supernatant; Used biotinylated as the detection antibody in the ELISAs and unlabeled in the cytometry assays; also called muFR1-13b; Biotinylated FR1-13) VH: QVQLKESGPDLVAPSQSLSITCTVSGFSLSRYSVHWIRQPPGKGLEWLGMIWSGGNTDYNSVFKSRLNITKDNSKSQVFLKMNSLQTDDTAIYYCATFDGKVSWFAYWGQGTLVTVSA VL: SIVMTQTPKFLLVSTGDRFTITCKASQSVSNDVLWYQQKPGQSPKLLIYYAYNRYSGVPDRFTGSGYGTDFTFTITTVQSEDLAVYFCQQDHSSPFTFGSGTKLEIKR
